Values quoted from earlier work, collected in patent publication US9956303B2, “Anti-met therapy for previously diagnosed cancer patients” (GE HEALTHCARE LIMITED, priority 2011, dated 2018).
One block for each compound: values may come before it.

How the values were obtained:
[1] = target: T1, c-Met (Homo sapiens, UniProt P08581); parameters: host or cells: NSCLC patients' tumours; conditions: for median overall-survival: analysed by retrospective IHC of archive biopsy samples, p=0.002
[2] = in vivo
[3] = target: T1, c-Met; conditions: mouse, in vivo
[4] = target: T2, HGF (Homo sapiens, UniProt P14210); conditions: combination with ECX
T2 construct: host or cells: patients
T2 sequence (P14210 32-728): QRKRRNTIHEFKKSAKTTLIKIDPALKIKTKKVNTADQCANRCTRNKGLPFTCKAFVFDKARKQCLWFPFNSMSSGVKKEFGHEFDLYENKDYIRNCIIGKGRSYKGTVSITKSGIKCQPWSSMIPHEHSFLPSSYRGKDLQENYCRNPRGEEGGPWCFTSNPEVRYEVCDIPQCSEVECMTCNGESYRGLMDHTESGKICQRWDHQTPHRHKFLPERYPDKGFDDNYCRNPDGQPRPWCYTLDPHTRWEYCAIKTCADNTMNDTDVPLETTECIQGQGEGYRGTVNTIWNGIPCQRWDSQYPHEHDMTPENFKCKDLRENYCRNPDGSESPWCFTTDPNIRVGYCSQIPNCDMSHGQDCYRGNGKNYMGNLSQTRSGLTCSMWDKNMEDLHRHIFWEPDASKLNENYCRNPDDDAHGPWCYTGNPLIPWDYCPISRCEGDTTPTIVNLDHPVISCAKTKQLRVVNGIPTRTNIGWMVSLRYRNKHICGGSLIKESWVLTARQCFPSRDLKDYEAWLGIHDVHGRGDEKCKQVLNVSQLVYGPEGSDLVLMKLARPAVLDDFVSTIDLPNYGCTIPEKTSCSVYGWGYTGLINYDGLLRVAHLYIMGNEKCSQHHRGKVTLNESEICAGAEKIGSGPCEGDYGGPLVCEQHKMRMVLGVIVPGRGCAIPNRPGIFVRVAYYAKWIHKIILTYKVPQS

T1 sequence (P08581 25-1390): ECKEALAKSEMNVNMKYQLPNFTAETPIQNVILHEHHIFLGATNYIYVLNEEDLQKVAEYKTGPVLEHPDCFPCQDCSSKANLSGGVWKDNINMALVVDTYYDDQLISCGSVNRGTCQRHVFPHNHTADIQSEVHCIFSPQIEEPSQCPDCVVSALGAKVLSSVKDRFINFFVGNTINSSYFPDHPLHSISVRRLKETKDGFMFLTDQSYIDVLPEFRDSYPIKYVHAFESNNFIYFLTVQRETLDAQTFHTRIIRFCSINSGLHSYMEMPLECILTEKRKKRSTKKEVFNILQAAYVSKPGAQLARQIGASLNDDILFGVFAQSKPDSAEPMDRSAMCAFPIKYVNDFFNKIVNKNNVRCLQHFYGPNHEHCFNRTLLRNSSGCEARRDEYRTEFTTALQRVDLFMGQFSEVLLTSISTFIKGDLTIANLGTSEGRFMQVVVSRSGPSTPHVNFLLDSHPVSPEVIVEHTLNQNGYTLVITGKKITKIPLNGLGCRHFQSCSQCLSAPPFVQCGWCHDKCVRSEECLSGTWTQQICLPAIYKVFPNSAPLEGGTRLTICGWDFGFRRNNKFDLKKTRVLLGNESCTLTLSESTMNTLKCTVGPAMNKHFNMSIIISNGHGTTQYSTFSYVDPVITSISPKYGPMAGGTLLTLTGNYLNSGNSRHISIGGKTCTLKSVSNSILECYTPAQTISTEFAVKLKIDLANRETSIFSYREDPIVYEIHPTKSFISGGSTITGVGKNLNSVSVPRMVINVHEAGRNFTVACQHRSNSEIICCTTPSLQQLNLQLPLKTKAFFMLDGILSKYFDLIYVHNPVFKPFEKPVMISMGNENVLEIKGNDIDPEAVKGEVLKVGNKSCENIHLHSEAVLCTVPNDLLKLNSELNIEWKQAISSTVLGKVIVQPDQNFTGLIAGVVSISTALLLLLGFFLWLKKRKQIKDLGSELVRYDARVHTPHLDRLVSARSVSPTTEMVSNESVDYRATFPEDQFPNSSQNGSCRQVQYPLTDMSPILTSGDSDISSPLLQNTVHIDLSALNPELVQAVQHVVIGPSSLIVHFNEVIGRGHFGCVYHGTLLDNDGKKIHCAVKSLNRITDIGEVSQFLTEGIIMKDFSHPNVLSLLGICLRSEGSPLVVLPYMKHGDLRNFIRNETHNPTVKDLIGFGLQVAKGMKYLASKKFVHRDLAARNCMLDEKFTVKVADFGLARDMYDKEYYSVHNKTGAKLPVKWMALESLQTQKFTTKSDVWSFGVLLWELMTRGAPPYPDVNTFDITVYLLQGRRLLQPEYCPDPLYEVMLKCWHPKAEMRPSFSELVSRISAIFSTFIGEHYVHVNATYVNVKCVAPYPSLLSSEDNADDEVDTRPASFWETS

Compound: C#Cc1cccc(Nc2ncnc3cc(OCCOC)c(OCCOC)cc23)c1 [Erlotinib, reference compound]
median overall-survival [1]: 3.8 months

outcome, low c-Met expression ([1]; MetMAb in combination with Erlotinib compared to Erlotinib alone): worse outcome
Compound: MetMAb: a monoclonal antibody blocking c-Met (Roche)
combined elimination half-life [2]: 190 to 288 h
median overall-survival [1]: 12.6 months
outcome, patient group as a whole ([1]; patients with high and low c-Met expression, MetMAb+Erlotinib vs placebo+Erlotinib): no differences between the two treatments

Compound: MetMab™ labelled with ^76Br or ^89Zr: anti-c-Met antibody (MetMab) labelled with 76Br or 89Zr for molecular imaging of c-Met
tumour uptake and clearance [3]: rapid tumour uptake and slow clearance

Compound: rilotumumab: HGF antibody (Amgen)
median overall survival vs placebo and ECX ([4]; c-Met high tumours (>50% tumour cells positive)): improved median overall survival
overall survival vs placebo and ECX ([4]; c-Met low tumours (≤50% positive)): trend toward unfavourable overall survival
